Measurements taken from US5663141A, “Hirudin/polyalkylene glycol conjugates and hirudin muteins” (BASF Aktiengesellschaft, priority 1989, dated 1997).

Columns and labels:
[1] = molecular target: thrombin (Homo sapiens, UniProt P00734); experiment: thrombin inhibition assay with the chromogenic substrate S 2238 (specific activity); type: biochemical
Excerpt: The specific activity of the PEG1 -hirudin conjugate purified from the coupling mixture was 8,000 U/mg of protein (determined by the thrombin inhibition assay with the chromogenic substrate S 2238 (Kabi), (FEBS-Lett. (1983), 164, 307), protein determined by BCA assay with serum albumin as standard (Pierce)), and the molecular weight of the conjugate was 15,000 Da (Superose®-12 chromatography, Pharmacia).

[2] = Pharmacokinetics of PEG2-hirudin conjugates in dogs (plasma anti-factor IIa activity); type: in vivo; details: beagle dogs, 4,000 U/kg intravenous or subcutaneous, compared with underivatized hirudin, FIGS. 3 and 4
Description: 2 groups of dogs (beagle dogs, 4 animals in each group) each received intravenous or subcutaneous administration of 4,000 U/kg PEG2 -hirudin (0.2 ml vol). 2 ml samples of blood in 0.1M Na citrate were taken 0.25, 0.5, 1, 2, 3, 4, 6, 8, 24, 32, 48, 56, 72 and 80 h after the injection. Subsequently platelet-poor plasma was prepared by centrifugation at 4,000 g for 10 minutes, and the plasma PEG-hirudin concentration was determined by the thrombin inhibition in the chromogenic substrate assay with S 2238 (Kabi). For comparison, the same dogs were treated in another experiment with hirudin. The time course of the plasma hirudin concentration was subsequently determined as described above.
FIGS. 3 and 4 depict the time course of the anti-factor IIa activities after intravenous and subcutaneous administration of PEG2 -hirudin and underivatized hirudin.

[3] = molecular target: thrombin
[4] = in vivo; cited from earlier work
[5] = purified conjugate, protein determined by BCA assay with serum albumin as standard
[6] = underivatized protein used as starting material

PEG1-hirudin: desulfatohirudin carrying one methoxy-polyethylene glycol(8000) residue, Example 9
specific activity [1, 5]: 8,000 U/mg of protein

PEG2-hirudin: desulfatohirudin carrying two methoxypolyethylene glycol (8,000 Da) residues, Example 10
specific activity [1, 5]: 6,200 U/mg of protein | bioavailability [2]: better | duration of the biological action (anti-factor IIa activity time course) [2]: distinctly prolonged

desulfatohirudin (from UniProt P01050)
specific activity [3]: 8000 ATU/mg

desulfatohirudin: hirudin prepared by genetic engineering, sulfate residue on Tyr 63 absent; sequences 1A + 2A + 3A [reference compound]
specific activity [1, 6]: 8,000 ATU/mg

hirudin: naturally occurring anticoagulant protein of 65 amino acids from the leech Hirudo medicinalis, thrombin inhibitor
half-life in the blood [4]: about 50 min

B1: HL 14B: hirudin mutein, Asp33→Lys33, Lys36→Arg36, Lys47→Arg47 (protein)
chain: VVYTDCTESGQNLCLCEGSNVCGQGNKCILGSKGERNQCVTGEGTPRPQSHNDGDFEEIPEEYLQ
specific activity [1, 6]: 8,900 ATU/mg

B2: PEG2-HL 14B: hirudin mutein HL 14B carrying two methoxy-polyethylene glycol (8,000 Da) residues, Example 11 (conjugate)
chain: B1 chain
modifications: ends and bridges not checked; also: two methoxy-PEG (8,000 Da) on lysine side-chain amino groups, positions not given here
specific activity [1, 5]: 8,300 U/mg of protein
